Results as given in patent US20170260282A1 (Janssen / Centocor, published 2017).

T1: Human GITR (cell surface) (human, UniProt Q9Y5U5 26-241)
T1 construct: also called hGITR; huGITR
T1 sequence: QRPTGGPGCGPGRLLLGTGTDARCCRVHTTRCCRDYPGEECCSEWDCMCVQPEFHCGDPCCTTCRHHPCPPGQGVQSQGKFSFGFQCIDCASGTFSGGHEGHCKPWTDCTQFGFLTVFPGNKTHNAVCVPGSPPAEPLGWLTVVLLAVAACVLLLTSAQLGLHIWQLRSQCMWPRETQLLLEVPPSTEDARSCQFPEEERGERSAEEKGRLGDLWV

T2: Cyno GITR (cell surface) (cynomolgus monkey)
T2 construct: Presented on transfected or transduced HEK293 cells; also called cynomolgus monkey GITR
T2 chain: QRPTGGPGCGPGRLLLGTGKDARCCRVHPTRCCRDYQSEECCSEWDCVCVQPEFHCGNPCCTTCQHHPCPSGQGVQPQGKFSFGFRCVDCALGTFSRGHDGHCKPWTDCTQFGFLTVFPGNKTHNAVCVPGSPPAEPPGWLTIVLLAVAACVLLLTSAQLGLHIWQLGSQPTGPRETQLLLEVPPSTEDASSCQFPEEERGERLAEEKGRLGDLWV

T3: cyno GITR ECD (cynomolgus monkey)
T3 construct: Only the extracellular domain stood in the SPR assay
T3 chain: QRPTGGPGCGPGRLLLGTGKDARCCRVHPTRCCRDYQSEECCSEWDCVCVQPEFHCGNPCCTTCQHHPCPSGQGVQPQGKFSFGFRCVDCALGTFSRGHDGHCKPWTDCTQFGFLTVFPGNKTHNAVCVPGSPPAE

T4: recombinant human GITR ECD (human, UniProt Q9Y5U5 26-161)
T4 construct: also called human GITR extracellular domain
T4 sequence: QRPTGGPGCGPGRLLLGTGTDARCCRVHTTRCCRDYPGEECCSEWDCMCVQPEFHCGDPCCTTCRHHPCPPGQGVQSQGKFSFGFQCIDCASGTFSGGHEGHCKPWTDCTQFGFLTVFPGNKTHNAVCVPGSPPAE


Columns and labels:
[1] = target: T1, Human GITR (cell surface); assay: flow cytometry, transiently transfected HEK293F cells, 0.1 mg/mL antibody
Cyno GITR (cell surface) [2] = target: T2, Cyno GITR (cell surface); assay: as above
[3] = target: T1, Human GITR (cell surface); assay: cell-based or functional assay
Cyno GITR (cell surface) [4] = target: T2, Cyno GITR (cell surface); assay: cell-based or functional assay
cyno GITR ECD = target: T3, cyno GITR ECD; assay: SPR (ProteOn XPR36), mAb captured by anti-human Fc, GITR ECD as analyte, 25 °C
Method: (§1) The affinities of the GITR antibodies to recombinant human GITR ECD were measured by Surface Plasmon Resonance (SPR) using a ProteOn XPR36 protein interaction array system (BioRad).
(§2) The rates of GITR ECD association and dissociation were measured for each variant. The biosensor surface was prepared by covalently coupling Goat anti-Human IgG (Fc) to the surface of a GLC chip (BioRad) using the manufacturer instructions for amine-coupling chemistry. Approximately 8800 RU (response units) of Goat anti-Human IgG (Fc) antibody (Jackson ImmunoResearch laboratories Prod #109-005-098) were immobilized. […] Since the mixture was 1:1 about 50% of these RU immobilized are expected to be goat anti-human Fc. The binding kinetics experiments were performed at 25° C. in running buffer (PBS pH 7.4, 0.005% P20, 3 mM EDTA). […] (1:3) serial dilutions of human GITR ECD or cyno GITR ECD starting at 100 nM were prepared in running buffer. […] The reference spots (Goat anti-Human IgG (Fc)-modified surface) containing no candidate captured were used as a reference surface. Capture of mAb was followed by 3 min injection (association phase) of antigen at 40 μL/min, followed by 10 min of buffer flow (dissociation phase). The chip surface was regenerated by injection of 0.85% phosphoric acid at 100 μL/min. Data were processed on the instrument software. Double reference subtraction of the data was performed by subtracting the curves generated by buffer injection from the reference-subtracted curves for analyte injections. Kinetic analysis of the data was performed using 1:1 Langmuir binding model with group fit. The result for each mAb was reported in the format of kon or on-rate, koff or off-rate, and KD (Equilibrium dissociation constant) (Table 7).

[5] = target: T4, recombinant human GITR ECD; assay: as above
Method: as §1, §2

Row | binding result [1] | binding result (Cyno GITR (cell surface) [2]) | ADCC EC50, HEK293-hGITR target cells, NK-92 FcγRIIIa 176V/V effector cells [3] | Binder | further results
1 | binds | binds | – | TRGB20 (antibody, human IgG1, kappa, V domains shown, human IgG1/kappa) VH: EVQLLESGGGLVQPGGSLRLSCAASGFTFSGYWMNWVRQAPGKGLEWVSGISSDGGSKYYADSVKGRFTISRDNSKNTLYLQMNSLRAEDTAVYYCAKEVVYDHYAALDYWGQGTLVTVSS VL: EIVLTQSPATLSLSPGERATLSCRASQSVNSFLAWYQQKPGQAPRLLIYYASNRATGIPARFSGSGSGTDFTLTISSLEPEDFAVYYCQQYIRWPLTFGQGTKVEIKR | –
2 | – | binds | 5.8 ng/mL | TRGB34 (antibody, human IgG1, kappa, V domains shown, human IgG1/kappa) VH: EVQLVQSGAEVKKPGESLKISCKGSGYSFTSYWIGWVRQMPGKGLEWMGIIYPGDSDTRYSPSFQGQVTISADKSISTAYLQWSSLKASDTAMYYCARDYGWHDFDYWGQGTLVTVSS VL: EIVLTQSPATLSLSPGERATLSCRASQSVSSYLAWYQQKPGQAPRLLIYDASNRATGIPARFSGSGSGTDFTLTISSLEPEDFAVYYCQQRSNWPLTFGQGTKVEIKR | –
3 | binds | binds | – | TRGB120 (antibody, human IgG1, kappa, V domains shown, human IgG1/kappa) VH: QVQLVQSGAEVKKPGSSVKVSCKASGGTFSSYAISWVRQAPGQGLEWMGGIIPIFGTANYAQKFQGRVTITADESTSTAYMELSSLRSEDTAVYYCARPRRNTNELDYWGQGTLVTVSS VL: not shown | –
4 | binds | binds | – | TRGB134 (antibody, human IgG1, kappa, V domains shown, human IgG1/kappa) VH: QVQLVQSGAEVKKPGSSVKVSCKASGGTFSSYAISWVRQAPGQGLEWMGGIIPIFGTANYAQKFQGRVTITADESTSTAYMELSSLRSEDTAVYYCARHRWGSGNLDYWGQGTLVTVSS VL: EIVLTQSPATLSLSPGERATLSCRASQSVSSYLAWYQQKPGQAPRLLIYDASNRATGIPARFSGSGSGTDFTLTISSLEPEDFAVYYCQQRSNWPLTFGQGTKVEIKR | –
5 | – | – | 2.9 ng/mL | TRGB159 (antibody, human IgG1, kappa, V domains shown, human IgG1/kappa) VH: QVQLVQSGAEVKKPGSSVKVSCKASGGTFSSYAISWVRQAPGQGLEWMGGIIPIFGTANYAQKFQGRVTITADESTSTAYMELSSLRSEDTAVYYCARHGRNSGRLDYWGQGTLVTVSS VL: EIVLTQSPATLSLSPGERATLSCRASQSVSSYLAWYQQKPGQAPRLLIYDASNRATGIPARFSGSGSGTDFTLTISSLEPEDFAVYYCQQRSNWPLTFGQGTKVEIKR | Kd (cyno GITR ECD): 10.6 nM; koff (cyno GITR ECD): 0.00197 s⁻¹; kon (cyno GITR ECD): 185000 M⁻¹ s⁻¹; Kd [5]: 3.04 nM; koff [5]: 0.00162 s⁻¹; kon [5]: 532000 M⁻¹ s⁻¹; ADCC EC50, HT1080-hGITR target cells, NK-92 FcγRIIIa 176V/V effector cells [3]: 6.7 ng/mL; ADCC EC50, HEK293-cyno GITR target cells, NK-92 FcγRIIIa 176V/V effector cells (Cyno GITR (cell surface) [4]): 25.8 ng/mL
6 | binds | binds | – | TRGB35 (antibody, human IgG1, kappa, V domains shown, human IgG1/kappa) VH: EVQLVQSGAEVKKPGESLKISCKGSGYSFTSYWISWVRQMPGKGLEWMGIIDPGDSDTRYSPSFQGQVTISADKSISTAYLQWSSLKASDTAMYYCARHRWSTSLLLDYWGQGTLVTVSS VL: EIVLTQSPATLSLSPGERATLSCRASQSVSSYLAWYQQKPGQAPRLLIYDASNRATGIPARFSGSGSGTDFTLTISSLEPEDFAVYYCQQRSNWPLTFGQGTKVEIKR | –

Second part, the binder before the results:

Row | Binder | binding result [1] | binding result (Cyno GITR (cell surface) [2]) | ADCC EC50, HEK293-hGITR target cells, NK-92 FcγRIIIa 176V/V effector cells [3] | further results
7 | TRGB144 (antibody, human IgG1, kappa, V domains shown, human IgG1/kappa) VH: QVQLVQSGAEVKKPGSSVKVSCKASGGTFSSYAISWVRQAPGQGLEWMGGIIPIFGTANYAQKFQGRVTITADESTSTAYMELSSLRSEDTAVYYCARHGFQRGYLDYWGQGTLVTVSS VL: EIVLTQSPATLSLSPGERATLSCRASQSVSSYLAWYQQKPGQAPRLLIYDASNRATGIPARFSGSGSGTDFTLTISSLEPEDFAVYYCQQRSNWPLTFGQGTKVEIKR | binds | binds | – | –
8 | TRGB23 (antibody, human IgG1, kappa, V domains shown) VH: QVQLVQSGAEVKKPGSSVKVSCKASGGTFSSYAISWVRQAPGQGLEWMGGIIPIFGTANYAQKFQGRVTITADESTSTAYMELSSLRSEDTAVYYCARHGNWLHFNLDYWGQGTLVTVSS VL: EIVLTQSPATLSLSPGERATLSCRASQSVSSYLAWYQQKPGQAPRLLIYDASNRATGIPARFSGSGSGTDFTLTISSLEPEDFAVYYCQQRSNWPLTFGQGTKVEIKR | – | – | 4.4 ng/mL | ADCC EC50, HEK293-cyno GITR target cells, NK-92 FcγRIIIa 176V/V effector cells (Cyno GITR (cell surface) [4]): 10.2 ng/mL
9 | TRGB31 (antibody, human IgG1, kappa, V domains shown, human IgG1/kappa) VH: EVQLVQSGAEVKKPGESLKISCKGSGYSFTSYWIGWVRQMPGKGLEWMGIIDPSDSDTRYSPSFQGQVTISADKSISTAYLQWSSLKASDTAMYYCARVFPYYGLVLDYWGQGTLVTVSS VL: EIVLTQSPATLSLSPGERATLSCRASQSVSSYLAWYQQKPGQAPRLLIYDASNRATGIPARFSGSGSGTDFTLTISSLEPEDFAVYYCQQRSNWPLTFGQGTKVEIKR | – | binds | 7.6 ng/mL | –
10 | TRGB14 (antibody, human IgG1, kappa, V domains shown, human IgG1/kappa) VH: not shown VL: EIVLTQSPATLSLSPGERATLSCRASQSVNNFLAWYQQKPGQAPRLLIYDASNRATGIPARFSGSGSGTDFTLTISSLEPEDFAVYYCQQGFNAPLTFGQGTKVEIKR | binds | binds | – | –
11 | TRGB162 (antibody, human IgG1, kappa, V domains shown, human IgG1/kappa) VH: QVQLVQSGAEVKKPGSSVKVSCKASGGTFSSYAISWVRQAPGQGLEWMGGIIPIFGNANYAQKFQGRVTITADESTSTAYMELSSLRSEDTAVYYCARHVYKRGVLNYWGQGTLVTVSS VL: EIVLTQSPATLSLSPGERATLSCRASQSVSSYLAWYQQKPGQAPRLLIYDASNRATGIPARFSGSGSGTDFTLTISSLEPEDFAVYYCQQRSNWPLTFGQGTKVEIKR | binds | binds | – | –
12 | TRGB5 (antibody, human IgG1, kappa, V domains shown, human IgG1/kappa) VH: EVQLLESGGGLVQPGGSLRLSCAASGFTFSGYWMSWVRQAPGKGLEWVSAISGSGGSTYYADSVKGRFTISRDNSKNTLYLQMNSLRAEDTAVYYCAKDFYWDAFDYWGQGTLVTVSS VL: EIVLTQSPATLSLSPGERATLSCRASQSVSSYLAWYQQKPGQAPRLLIYDASNRATGIPARFSGSGSGTDFTLTISSLEPEDFAVYYCQQRSNWPLTFGQGTKVEIKR | binds | binds | – | –
